Values quoted from earlier work as cited in paper PMC4291147, “Molecular Basis of Histone Tail Recognition by Human TIP5 PHD Finger and Bromodomain of the Chromatin Remodeling Complex NoRC” (Structure(London, England:1993), 2015).
Where two headings read alike, the source gives them in different places.

Assays:
[1] = molecular target: Histone H3 K14ac peptide (Homo sapiens) (UniProt P68431); assay: ITC
[2] = molecular target: Histone H3 K14ac peptide (Homo sapiens) (UniProt P68431); assay: STD-NMR
[3] = molecular target: Histone H3 K14ac peptide (Homo sapiens) (UniProt P68431)

Sequence of PCAF bromodomain (Q92831 720-830): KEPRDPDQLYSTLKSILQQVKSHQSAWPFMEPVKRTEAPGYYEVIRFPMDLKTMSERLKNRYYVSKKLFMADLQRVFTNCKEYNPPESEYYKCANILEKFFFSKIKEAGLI
Sequence of PCAF BRD (Q92831 723-827): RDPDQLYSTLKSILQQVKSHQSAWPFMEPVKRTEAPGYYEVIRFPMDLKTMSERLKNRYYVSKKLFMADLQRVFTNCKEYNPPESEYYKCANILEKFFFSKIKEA
Sequence of SMARCA4 BRD (P51532 1453-1564): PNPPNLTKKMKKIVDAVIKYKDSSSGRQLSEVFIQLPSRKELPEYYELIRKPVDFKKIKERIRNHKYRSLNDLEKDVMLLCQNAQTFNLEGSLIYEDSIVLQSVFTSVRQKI
Sequence of SMARCA4 bromodomain (P51532 1450-1567): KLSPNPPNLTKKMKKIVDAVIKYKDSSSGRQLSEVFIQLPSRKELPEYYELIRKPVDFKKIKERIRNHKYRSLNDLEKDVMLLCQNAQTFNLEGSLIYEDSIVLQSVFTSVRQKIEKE
Sequence of PB1 BRD2 (Q86U86 177-287): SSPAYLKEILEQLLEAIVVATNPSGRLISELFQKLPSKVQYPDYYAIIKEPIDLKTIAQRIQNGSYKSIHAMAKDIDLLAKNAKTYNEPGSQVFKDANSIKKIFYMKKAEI
Sequence of PB1 BRD 2 (Q86U86 177-287): as above
Sequence of SMARCA2 BRD (P51531 1378-1506): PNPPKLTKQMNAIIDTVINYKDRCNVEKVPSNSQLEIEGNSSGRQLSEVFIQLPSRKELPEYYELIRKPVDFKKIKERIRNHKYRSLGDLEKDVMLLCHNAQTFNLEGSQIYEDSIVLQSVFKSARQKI
Sequence of SMARCA2 bromodomain (P51531 1375-1509): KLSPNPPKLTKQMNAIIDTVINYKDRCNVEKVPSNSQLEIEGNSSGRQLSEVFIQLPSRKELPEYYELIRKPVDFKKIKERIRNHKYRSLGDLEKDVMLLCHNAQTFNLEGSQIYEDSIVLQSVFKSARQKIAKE

Substance | Kd [1] [µM] | Kd [2] [µM] | Kd [3] [µM]
SMARCA2 bromodomain (from UniProt P51531) | 285 |  | 
PCAF BRD (from UniProt Q92831) | 188 | 128 | 
SMARCA4 BRD (from UniProt P51532) |  | 1200 | 
PB1 BRD2 (from UniProt Q86U86) |  |  | 500
SMARCA4 bromodomain (from UniProt P51532) |  | 1200 | 
PCAF bromodomain (from UniProt Q92831) | 188 | 128 | 
SMARCA2 BRD (from UniProt P51531) | 285 |  | 
PB1 BRD 2 (from UniProt Q86U86) |  | 500 | 
